Laboratory results taken from patent US20060257938A1, “Method of screening for drugs that block ligand binding to a lipid binding protein” (priority 2005, published 2006).
Where a chain is given by its changes, count along the chain named.

B1: 72W 73T 74G (protein, listed as Rattus norvegicus)
chain: AFDGTWKVDRNENYEKFMEKMGINVVKRKLGAHDNLKLTITQEGNKFTVKESSNFRNIDVVFELGVDFAYSWTGGTELTGTWTMEGNKLVGKFKRVDNGKELIAVREISGNELIQTYTYEGVEAKRIFKKE
modifications: PEPTIDE (1)...(131) wild-type rat intestinal fatty acid binding protein
B2: 72T 74I (protein, listed as Rattus norvegicus)
chain: B1 chain with W72T, T73A, G74I
modifications: PEPTIDE (1)...(131) wild-type rat intestinal fatty acid binding protein
B3: 72S 73V 74V (protein, listed as Rattus norvegicus)
chain: B1 chain with W72S, T73V, G74V
modifications: PEPTIDE (1)...(131) wild-type rat intestinal fatty acid binding protein
B4: 72T 73V 74A (protein, listed as Rattus norvegicus)
chain: B1 chain with W72T, T73V, G74A
modifications: PEPTIDE (1)...(131) wild-type rat intestinal fatty acid binding protein
B5: 21Y 78I 102I 72A (protein, listed as Rattus norvegicus)
chain: B1 chain with M21Y, W72A, T73A, G74D, L78I, L102I
modifications: PEPTIDE (1)...(131) wild-type rat intestinal fatty acid binding protein
B6: 72T 73W 74L (protein, listed as Rattus norvegicus)
chain: B1 chain with W72T, T73W, G74L
modifications: PEPTIDE (1)...(131) wild-type rat intestinal fatty acid binding protein
B7: 72T 73V 74N (protein, listed as Rattus norvegicus)
chain: B1 chain with W72T, T73V, G74N
modifications: PEPTIDE (1)...(131) wild-type rat intestinal fatty acid binding protein
B8: 72S 73M 74A (protein, listed as Rattus norvegicus)
chain: B1 chain with W72S, T73M, G74A
modifications: PEPTIDE (1)...(131) wild-type rat intestinal fatty acid binding protein
B9: 72T 73V 74S (protein, listed as Rattus norvegicus)
chain: B1 chain with W72T, T73V, G74S
modifications: PEPTIDE (1)...(131) wild-type rat intestinal fatty acid binding protein
B10: 72A 73W 74V (protein, listed as Rattus norvegicus)
chain: B1 chain with W72A, T73W, G74V
modifications: PEPTIDE (1)...(131) wild-type rat intestinal fatty acid binding protein
B11: 72T 73Q 74A (protein, listed as Rattus norvegicus)
chain: B1 chain with W72T, T73Q, G74A
modifications: PEPTIDE (1)...(131) wild-type rat intestinal fatty acid binding protein
B12: 72A 73P 74V (protein, listed as Rattus norvegicus)
chain: B1 chain with W72A, T73P, G74V
modifications: PEPTIDE (1)...(131) wild-type rat intestinal fatty acid binding protein
B13: 72S 73L 74A (protein, listed as Rattus norvegicus)
chain: B1 chain with W72S, T73L, G74A
modifications: PEPTIDE (1)...(131) wild-type rat intestinal fatty acid binding protein
B14: 18V 31A 73W 72A (protein, listed as Rattus norvegicus)
chain: B1 chain with M18V, G31A, W72A, T73W, G74D
modifications: PEPTIDE (1)...(131) wild-type rat intestinal fatty acid binding protein

assay: Probe fluorescence ratio response to oleic acid relative to ADIFAB2; format: binding; details: response relative to ADIFAB2
Method in brief: (§1)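 Each fatty acid's response was expressed relative to ADIFAB2, the rI-FABP-L72A probe, as ΔR/ΔRreference. ΔR is the change in the background-corrected two-wavelength intensity ratio R=Fλ1/Fλ2 from its analyte-free baseline R0. Emission was read near about 420-480 nm for unbound and about 495-580 nm for FFA-bound probe.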

Row | Molecule | DR/DR OA
1 | B1 | 2.514
2 | B2 | 2.660
3 | B3 | 2.556
4 | B4 | 1.950
5 | B5 | 3.424
6 | B6 | 2.340
7 | B7 | 2.491
8 | B8 | 2.443
9 | B9 | 2.670
10 | B10 | 1.574
11 | B11 | 3.136
12 | B12 | 2.187
13 | B13 | 3.495
14 | B14 | 1.738

assay: Probe fluorescence ratio response to palmitic acid relative to ADIFAB2; format: binding; details: response relative to ADIFAB2
Method in brief: as §1

Row | Molecule | DR/DR PA
15 | B1 | 2.934
16 | B2 | 2.476
17 | B3 | 2.091
18 | B4 | 2.362
19 | B5 | 1.870
20 | B6 | 2.727
21 | B7 | 2.250
22 | B8 | 2.524
23 | B9 | 2.629
24 | B10 | 2.525
25 | B11 | 3.473
26 | B12 | 2.406
27 | B13 | 3.293
28 | B14 | 2.218

assay: Probe fluorescence ratio response to linoleic acid relative to ADIFAB2; format: binding; details: response relative to ADIFAB2
Method in brief: as §1

Row | Molecule | DR/DR LA
29 | B1 | 3.099
30 | B2 | 3.156
31 | B3 | 3.085
32 | B4 | 2.435
33 | B5 | 2.879
34 | B6 | 2.819
35 | B7 | 2.407
36 | B8 | 2.470
37 | B9 | 2.611
38 | B10 | 2.338
39 | B11 | 3.163
40 | B12 | 2.735
41 | B13 | 3.455
42 | B14 | 2.540

assay: Probe fluorescence ratio response to stearic acid relative to ADIFAB2; format: binding; details: response relative to ADIFAB2
Excerpt: (§2) In an alternate preferred embodiment, the protein is rI-FABP that has Ala substituted for Leu at position 72 (rI-FABP-L72A) with the resulting probe named ADIFAB2. […] Other probes useful in embodiments of the invention are shown in Tables 1-6 and are also described in U.S. application Ser. No. 11/085,792, filed Mar. 21, 2005 which is incorporated herein by reference. The indicated substitutions are with reference to the ADIFAB protein of SEQ ID NO: 2.
(§3) ADIFAB2 also has an altered spectral response, making it especially useful for measurements of FFAu in blood samples (Apple et al, Clinical Proteomics, (2004) 1:41-44, U.S. patent application Ser. No. 10/670,958). The wavelengths at the maximum intensities emitted by these fluorescently-labeled I-FABP's in the absence of FFA is about 420 to 480 nm. The emission wavelengths at the maximum intensities emitted by these fluorescently-labeled I-FABP's with FFA bound are between about 495 to 580 nm. Experiments typically involve measuring the fluorescence response within both emission maxima or at wavelengths for which the effect of interfering molecules such as hemoglobin can be eliminated as described in U.S. application Ser. No. 10/670958 and PCT/US2004/030521 and the calculation of the ratio ‘R’ of the two fluorescence intensities. The baseline value for this ratio, measured in the absence of analyte, is designated R0.
(§4) The intensity ratio (“R” value) is determined as follows. The ratio is calculated using the following formula: R=Fλ1/Fλ2 wherein, Fλ1 is the measured fluorescence intensities (intensity of sample with probe present minus intensity of sample without probe present) at wavelength 1 and Fλ2 is the measured fluorescence intensities (intensity of sample with probe present minus intensity of sample without probe present) at wavelength 2. Then, for a given probe, ΔR, the difference in R value between the measurement in the presence of the test compound (agent) and in the absence of the test compound (agent), is calculated as follows: ΔR=R+agent−R0 In some embodiments, the ΔR value may then be compared to some reference, for example, an agent with a known affinity for a given probe, by ΔR/ΔRreference. Measurements of fluorescence intensities are obtained using standard techniques.

Row | Molecule | DR/DR SA
43 | B1 | 1.040
44 | B2 | 1.806
45 | B3 | 1.058
46 | B4 | 1.146
47 | B5 | 2.774
48 | B6 | 1.217
49 | B7 | 1.942
50 | B8 | 1.776
51 | B9 | 2.195
52 | B10 | 0.602
53 | B11 | 2.318
54 | B12 | 1.178
55 | B13 | 2.574
56 | B14 | 0.722

assay: Probe fluorescence ratio response to linolenic acid relative to ADIFAB2; format: binding; details: response relative to ADIFAB2
Method in brief: as §1

Row | Molecule | DR/DR LNA
57 | B1 | 3.394
58 | B2 | 3.169
59 | B3 | 3.088
60 | B4 | 2.597
61 | B5 | 2.454
62 | B6 | 3.009
63 | B7 | 2.362
64 | B8 | 2.567
65 | B9 | 2.579
66 | B10 | 2.752
67 | B11 | 2.850
68 | B12 | 2.845
69 | B13 | 3.322
70 | B14 | 2.770

assay: Probe fluorescence ratio response to arachidonic acid relative to ADIFAB2; format: binding; details: arachidonic acid; response relative to ADIFAB2
Method in brief: as §1

Row | Molecule | DR/DR AA
71 | B1 | 2.808
72 | B2 | 2.502
73 | B3 | 2.712
74 | B4 | 2.180
75 | B5 | 3.536
76 | B6 | 2.721
77 | B7 | 2.484
78 | B8 | 2.759
79 | B9 | 2.540
80 | B10 | 1.768
81 | B11 | 2.392
82 | B12 | 2.354
83 | B13 | 3.336
84 | B14 | 1.761

assay: Probe fluorescence ratio response to palmitoleic acid relative to ADIFAB2; format: binding; details: response relative to ADIFAB2
Excerpt: as §2, §3, §4

Row | Molecule | DR/DR POA
85 | B1 | 4.105
86 | B2 | 3.410
87 | B3 | 3.322
88 | B4 | 3.011
89 | B5 | 2.089
90 | B6 | 3.574
91 | B7 | 2.816
92 | B8 | 2.854
93 | B9 | 2.909
94 | B10 | 3.856
95 | B11 | 3.632
96 | B12 | 3.613
97 | B13 | 3.923
98 | B14 | 3.184
